{"source": "paper PMC7930385", "about": "“A Novel SOD1 Intermediate Oligomer, Role of Free Thiols and Disulfide Exchange” (Frontiers in Neuroscience, 2020)", "proteins": {"B1": {"name": "apo C6A/C111S human SOD1 (apo AS-SOD1) (enzyme)", "chain": "not shown", "modifications": "no N-terminal acetylation (expression in E. coli); metal-free (apo); C57-C146 disulfide intact at the start and reduced by TCEP in the reaction", "notes": "Cu/Zn superoxide dismutase 1 (SOD1), human, 153-residue subunit, both free cysteines removed (C6A, C111S); numbers count on: the mature protein (numbered from A1); The printed mass of AS S-S (15756.43 Da) appears to fit the 153-residue chain without Met and without acetyl; also called AS mutant; apo AS^S–S; source: E. coli, purified, demetallated by dialysis (apo)"}}, "target": "the molecule itself", "assay": "thioflavin-T fluorescence of fibrillation + electron microscopy; 40 μM apo protein in 10 mM potassium phosphate, pH 7.0, with TCEP (0-10 mM) and 40 μM thioflavin-T, 37°C, agitated at 300 rpm in 96-well plates with a Teflon ball; fibrils seen by negative-stain EM"}
{"protein": "B1", "values": [{"measurement": "binding result", "result": "binds"}]}
